Test results taken from patent US20180369425A1, “LINKED AND OTHER pH-TRIGGERED COMPOUNDS” (priority 2017, published 2018).
Residues, ends and D or L forms follow the SMILES beside them. *: point of attachment. X1 = CC1(C)C(/C=C/C=C/C=C/C=C2/N(CCCCCC(=O)NCCN3C(=O)CC(*)C3=O)c3ccc4ccccc4c3C2(C)C)=[N+](CCCCS(=O)(=O)[O-])c2ccc3ccccc3c21

System: 4T1 tumor
Assay: Ex vivo NIRF imaging of organs (biodistribution and kinetics of ICG-pHLIP)
Type: in vivo, mouse
Details: for Fluorescence intensity, Stomach / Fluorescence intensity, Tumor / Fluorescence intensity, Bone / Fluorescence intensity, Brain / Fluorescence intensity, Heart / Fluorescence intensity, Kidneys / Fluorescence intensity, L. Intest. / Fluorescence intensity, Liver / Fluorescence intensity, Lungs / Fluorescence intensity, Muscle / Fluorescence intensity, Pancreas / Fluorescence intensity, S. Intest. / Fluorescence intensity, Skin / Fluorescence intensity, Spleen: mean ± St. D., 5 animals
Protocol: BALB/cAcNHsd mice ranging in age from 5 to 6 weeks obtained from Envigo RMS Inc were used in the study. Mouse mammary 4T1 cancer cells were subcutaneously implanted in the right flank (8×10^5 cells/0.1 mL/flank) of adult female mice. Triple negative 4T1 tumor model closely mimics stage IV of human breast cancer. When tumors reached 5-6 mm in diameter, single tail vein injections of 2.5 nmol (or 0.5 mg/kg) of ICG-pHLIP in sterile PBS with 5% DMSO or 5% Ethanol (volume of the injection was 100 μl) were performed. The whole body and ex vivo imaging was performed using a Stryker 1588 AIM clinical imaging system with L10 AIM Light Source, 1588 AIM Camera using a 10 mm or 5 mm scope.
Animals were euthanized at time points: 5 min, 1 hr, 2 hrs, 4 hrs, 6 hrs, 16 hrs, 26 hrs and 48 hrs. […] 100 μl of blood was collected immediately after euthanasia and mixed with 12.5 μl of citrate-dextrose anticoagulant solution (kept at 4° C.), and necropsy was performed. Tumor, muscles, skin, heart, lungs, liver, spleen, kidneys, brain, pancreas, bone, stomach, small and large intestines were collected, imaged immediately after collection, weighed, and fast frozen in liquid nitrogen.
The ex vivo imaging of organs was performed using a Stryker 1588 AIM clinical imaging system with L10 AIM Light Source, 1588 AIM Camera using a 10 mm scope. The lens was spaced 4.3 cm away from the surface of the organs within an enclosed (light protected) area. The NIRF imaging of each organ was performed at three different laser intensities set on a hexadecimal scale as 0B-22 (low), 12-5C (medium), and 20-3A (high). The digital images of organs were processed using program written in Python to determine the average level of intensity recorded in the green channel. Since organs were imaged in the dark on black mats, the background signal was determined by introducing an intensity threshold. All the pixels with intensity from the green channel above the set threshold were counted and the average green intensity per pixel was calculated. Thus, the mean intensity per organ (Table 17a) and averaged over organs from 5 animals (Table 17b) was calculated.

Compound: CC(C)C[C@H](NC(=O)[C@H](Cc1ccc(O)cc1)NC(=O)[C@H](C)NC(=O)[C@H](CCCNC(=N)N)NC(=O)[C@H](Cc1c[nH]c2ccccc12)NC(=O)[C@@H]1CCCN1C(=O)[C@H](CC(N)=O)NC(=O)[C@H](CCC(N)=O)NC(=O)[C@H](CC(=O)O)NC(=O)[C@H](CC(=O)O)NC(=O)[C@H](CSC1CC(=O)N(CCNC(=O)CCCCCN2/C(=C/C=C/C=C/C=C/C3=[N+](CCCCS(=O)(=O)[O-])c4ccc5ccccc5c4C3(C)C)C(C)(C)c3c2ccc2ccccc32)C1=O)NC(=O)[C@H](C)N)C(=O)N[C@@H](CC(=O)O)C(=O)N[C@@H](CC(C)C)C(=O)N[C@@H](CC(C)C)C(=O)N[C@@H](Cc1ccccc1)C(=O)N1CCC[C@H]1C(=O)N[C@H](C(=O)N[C@@H](CC(=O)O)C(=O)N[C@H](C(=O)N[C@@H](CC(C)C)C(=O)N[C@@H](CC(C)C)C(=O)N[C@@H](CC(C)C)C(=O)N[C@@H](CC(=O)O)C(=O)N[C@@H](CC(C)C)C(=O)N[C@@H](CC(C)C)C(=O)N[C@@H](Cc1c[nH]c2ccccc12)C(=O)N[C@@H](C)C(=O)O)[C@@H](C)O)[C@@H](C)O (some centres unmarked) [ICG-pHLIP] (H-AC(X1)DDQNPWRAYLDLLFPTDTLLLDLLWA-OH)
- Fluorescence intensity, Stomach (2 hours p.i.): 80.7 ± 18.6 a.u.
- Fluorescence intensity, Tumor (2 hours p.i.): 133.9 ± 14.2 a.u.
- Fluorescence intensity, Bone (4 hours p.i.): 63.1 ± 21.0 a.u.
- Fluorescence intensity, Brain (4 hours p.i.): 73.8 ± 8.3 a.u.
- Fluorescence intensity, Heart (4 hours p.i.): 185.6 ± 7.2 a.u.
- Fluorescence intensity, Kidneys (4 hours p.i.): 185.5 ± 6.2 a.u.
- Fluorescence intensity, L. Intest. (4 hours p.i.): 7.9 ± 17.6 a.u.
- Fluorescence intensity, Liver (4 hours p.i.): 540.1 ± 18.8 a.u.
- Fluorescence intensity, Lungs (4 hours p.i.): 187.0 ± 17.2 a.u.
- Fluorescence intensity, Muscle (4 hours p.i.): 26.2 ± 24.6 a.u.
- Fluorescence intensity, Pancreas (4 hours p.i.): 92.0 ± 2.5 a.u.
- Fluorescence intensity, S. Intest. (4 hours p.i.): 64.9 ± 16.3 a.u.
- Fluorescence intensity, Skin (4 hours p.i.): 48.2 ± 11.6 a.u.
- Fluorescence intensity, Spleen (4 hours p.i.): 150.9 ± 11.4 a.u.
- Fluorescence intensity, Stomach (4 hours p.i.): 108.4 ± 6.5 a.u.
- Fluorescence intensity, Tumor (4 hours p.i.): 211.2 ± 15.7 a.u.
- Fluorescence intensity, Bone (6 hours p.i.): 66.7 ± 16.0 a.u.
- Fluorescence intensity, Brain (6 hours p.i.): 55.3 ± 11.0 a.u.
- Fluorescence intensity, Heart (6 hours p.i.): 163.0 ± 8.2 a.u.
- Fluorescence intensity, Kidneys (6 hours p.i.): 174.0 ± 5.0 a.u.
- Fluorescence intensity, L. Intest. (6 hours p.i.): 27.1 ± 15.6 a.u.
- Fluorescence intensity, Liver (6 hours p.i.): 527.1 ± 44.4 a.u.
- Fluorescence intensity, Lungs (6 hours p.i.): 156.8 ± 15.9 a.u.
- Fluorescence intensity, Muscle (6 hours p.i.): 0.0 ± 0.0 a.u.
- Fluorescence intensity, Pancreas (6 hours p.i.): 82.2 ± 15.3 a.u.
- Fluorescence intensity, S. Intest. (6 hours p.i.): 54.2 ± 11.6 a.u.
- Fluorescence intensity, Skin (6 hours p.i.): 47.1 ± 13.6 a.u.
- Fluorescence intensity, Spleen (6 hours p.i.): 148.1 ± 13.4 a.u.
- Fluorescence intensity, Stomach (6 hours p.i.): 126.8 ± 9.9 a.u.
- Fluorescence intensity, Tumor (6 hours p.i.): 198.6 ± 33.0 a.u.
- Fluorescence intensity, Bone (16 hours p.i.): 66.2 ± 8.5 a.u.
- Fluorescence intensity, Brain (16 hours p.i.): 35.3 ± 1.8 a.u.
- Fluorescence intensity, Heart (16 hours p.i.): 129.2 ± 15.7 a.u.
- Fluorescence intensity, Kidneys (16 hours p.i.): 170.6 ± 12.8 a.u.
- Fluorescence intensity, L. Intest. (16 hours p.i.): 40.5 ± 4.0 a.u.
- Fluorescence intensity, Liver (16 hours p.i.): 400.5 ± 34.1 a.u.
- Fluorescence intensity, Lungs (16 hours p.i.): 141.3 ± 21.5 a.u.
- Fluorescence intensity, Muscle (16 hours p.i.): 0.0 ± 0.0 a.u.
- Fluorescence intensity, Pancreas (16 hours p.i.): 70.3 ± 30.0 a.u.
- Fluorescence intensity, S. Intest. (16 hours p.i.): 83.8 ± 13.6 a.u.
- Fluorescence intensity, Skin (16 hours p.i.): 76.7 ± 20.4 a.u.
- Fluorescence intensity, Spleen (16 hours p.i.): 116.3 ± 25.0 a.u.
- Fluorescence intensity, Stomach (16 hours p.i.): 117.3 ± 33.1 a.u.
- Fluorescence intensity, Tumor (16 hours p.i.): 222.8 ± 11.0 a.u.
- Fluorescence intensity, Bone (26 hours p.i.): 42.8 ± 6.4 a.u.
- Fluorescence intensity, Brain (26 hours p.i.): 0.0 ± 0.0 a.u.
- Fluorescence intensity, Heart (26 hours p.i.): 61.3 ± 6.6 a.u.
- Fluorescence intensity, Kidneys (26 hours p.i.): 111.8 ± 7.9 a.u.
- Fluorescence intensity, L. Intest. (26 hours p.i.): 0.0 ± 0.0 a.u.
- Fluorescence intensity, Liver (26 hours p.i.): 213.1 ± 9.7 a.u.
- Fluorescence intensity, Lungs (26 hours p.i.): 64.2 ± 13.9 a.u.
- Fluorescence intensity, Muscle (26 hours p.i.): 8.6 ± 19.2 a.u.
- Fluorescence intensity, Pancreas (26 hours p.i.): 30.9 ± 17.9 a.u.
- Fluorescence intensity, S. Intest. (26 hours p.i.): 37.8 ± 4.7 a.u.
- Fluorescence intensity, Skin (26 hours p.i.): 25.1 ± 24.8 a.u.
- Fluorescence intensity, Spleen (26 hours p.i.): 48.0 ± 7.7 a.u.
- Fluorescence intensity, Stomach (26 hours p.i.): 59.1 ± 13.4 a.u.
- Fluorescence intensity, Tumor (26 hours p.i.): 182.6 ± 14.7 a.u.
- time of maximum signal in liver (p.i.): 1 h
